Measured values from the supplement of paper PMC9170038.

Tested on: MS2 coat protein
Test: apparent KD of MS2 coat protein; higher = weaker reporter binding
Settings: Eterna round: R107
Method in brief: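 Each design's apparent KD comes from the median of binding-curve fits to its normalised clusters. Those clusters carried RNA switches transcribed on-chip from Illumina sequencing clusters. SNAP-549-labelled MS2 coat protein was titrated onto them in twofold steps (0.7 or 1.5 nM to 3 µM; per step 0.8–1.5 h down to 10–20 min). Conditions were 100 mM Tris-HCl pH 7.5, 80 mM KCl, 4 mM MgCl2, without or with constant ligand.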

[1] = input ligand: theophylline 20 uM
[2] = input ligand: theophylline 2 mM
[3] = input ligand: tryptophan 2.4 mM

Sequence	apparent KD of MS2 coat protein (input ligand: arginine 13.2 mM)	apparent KD of MS2 coat protein (input ligand: none)	apparent KD of MS2 coat protein [1]	apparent KD of MS2 coat protein [2]	apparent KD of MS2 coat protein [3]
UGUAUGGACUGAAGGAGCGGGAAAAUAACUUGAGGAUCACCCAGGUAAAAGGCGAAAGCCACCCAGGUAGGUCGCAGUCCAUACU	21.5 nM	26.2 nM	30.1 nM	22.4 nM	25.9 nM
UGUAUGGACUGAAGGAGCGGGUUGAUAACCUGAGGAUCAUCCAGGUAAAAGGCGAAAGCCGCCCAGGUAGGUCGCAGUCCAUACU	174 nM	158 nM	227 nM	280 nM	237 nM
UGUAUGGACUGAAGGAGCGGGUUGAUAAUCUGAGGAUCACCCAGGUAAAAGGCGAAAGCCGCCCAGGUAGGUCGCAGUCCAUACU	20.5 nM	25.3 nM	36.1 nM	31.5 nM	33.4 nM
UGUAUGUGAUCUGAUACCAGUCCAACUGGUAAACCAUGAGGAUCACCCAUGGAAAAUUGGGACCCUUGGCAGCAGAUCGCAUACU	96.5 nM		236 nM	20.9 nM	322 nM
UGUAUGUGAUUUGAUACCAGACCAACUGGUAAUACAUGAGGAUCACCCAUGUAGAUUUGGGUCCCUUGGCAGCAAAUCGCAUACU [SSTheo B #23]	45.6 nM		34.1 nM		46.1 nM
UGUAUGUGAUUUGAUACCAGACCAGCUGGUGGUACCUGAGGAACACCCAGGUAGGUUUGGGUCCCUUGGCAGCAAAUCGCAUACU [SS Theo B #24 Ms7]	36.2 nM		34.4 nM	21.4 nM	33.3 nM
UGUCCUCAUGCGGCCGCCACUGUCGGCCGCCACUAAACCUGAGGAUCACCCGGGUAGGACCGGGACAGGACCGGGCAUGGGUGCU [#DoubleAptamer 4 #AlternativeMS2]	47.4 nM	315 nM	486 nM	686 nM	111 nM
UGUCGGCGAAAGUUGGCGUGUCUUGCUGGUCGAGGACCGGUACGGCCGCCACUCGAUCCUUCGCACAUGAGGAUCACCCAUGUUG [SS Tryp A #24]	25.8 nM		49.1 nM	34.8 nM	
UGUGCAGGAUGUGUAAAAGGUCUUGGGCAUCGAGGACCGGUACGGCCGCCACUCGGCUGUACAUGAGGAUCACCCAUGUCAGGGU [#1 Same State - Tryptophan A Attempt #21 (HarryS)]	30.5 nM	220 nM	554 nM	694 nM	737 nM
UGUGUCGUCUGAAGGAGCGGCUCUUGAUCCUCGUGGGACAUGAGGAUCACCCAUGUCUCGAGCCAGGUAGGUCGCAGGCGGCACA [#27 Exclusion - Arginine B]	31.3 nM	26 nM	32.6 nM	23.8 nM	20.7 nM
UUAUAAGUACCGGUCCUCAGAUCCUCAUGACGAGGACCGGUACGGCCGCCACUCGAAACAUGAGGAUCACCCAUGUAAUAAUAAU [Brourdmod05]	18.8 nM		29.3 nM	27.7 nM	
UUAUAAGUACCGGUCCUCAGAUCCUCAUGACGAGGACCGGUACGGCCGCCACUCGAAACAUGAGGAUCACCCAUGUAAUAAUACC [Brourdmod12]	36.6 nM		71.5 nM	54.2 nM	
UUAUAUACUACGGCCGCCACUGAACAUGAGGAUCACCCAUGUAAUGUUCAGACGUCUUUAGACGACAGGACCGGGUAGAAUUAAA [Tryptophan B 1]	79.5 nM		114 nM	122 nM	
UUCAAAGGGAACGGUGCUGGUAGCAGAGAUACCAGAGUAAUGAUACUCCCUUGGCAGCUCAGUACAUGAGGAUCACCCAUGUAAU [Exclusion Theophylline A GF24]	13.8 nM	13.5 nM	20.2 nM	15.9 nM	15.1 nM
UUCACAUGAUCUGAAUAUACAGAAAAGAAACGAGGACCGGUACGGCCGCCACUCGUGCCGGAAACAUGAGGAUCACCCAUGUGUU [AK1.3 Exclusion TrypA mod IceBolt]	19.7 nM		28.5 nM	26.2 nM	
UUCACAUGGUAUGAAUAUACAUAUAAGAAACGAGGACCGGUACGGCCGCCACUCGUGCCGGAAACAUGAGGAUCACCCAUGUGUU [AK1.1 Exclusion TrypA mod IceBolt]	27 nM		55.9 nM	64.8 nM	
UUCGUAUUGUCGGCCGCCACUGCAACAUGAGGAUCACCCAUGUAAAUUUGGGAGUAGUUAUAUUACAGGACCGGGACAAUAGUAA [JR_ExcTryptoB_Sub019]	51.8 nM		113 nM	140 nM	
